Consider four molecules from patent US20110268740A1.

Where a chain is given by its changes, count along the chain named.

As a reminder, the EC50 is the concentration at which the effect is half-maximal.

Assay [1] addresses M2e-VN (Influenza A virus A/VN/1203/04 (H5N1)). Kind of assay: ELISA, apparent affinity, purified scFv-msFcγ2c on immobilised M2e-VN. (In general: ELISA stands for enzyme-linked immunosorbent assay.)

B1: scFv-D005-msFcγ2c (Fc fusion)
chain: DADPAQAAELVMTQSPDSLAVSLGERATINCKSSQSVLYTSNNKNYLGWYQQKPGQPPNLLIYWASTRESGVPDRFSGSGSGTDFTLTINSVQAEDVAVYYCQQYFMTPITFGQGTRLEIKGGSSRSSSSGGGGSGGGGEVQLVESGGALVQPGRSLRLSCRTSGLNFGDYPINWVRQAPGKGLEWVGFIKSKSYGVTTEFAASVEGRFTISRDDSRGIAYLQMNSLKTEDTAVYYCTSSSGFLYYFDYWGQGTLVTVSSASTKGPSVTSGQAGRKLEPRVPITQNPCPPLKECPPCAAPDLLGGPSVFIFPPKIKDVLMISLSPMVTCVVVDVSEDDPDVQISWFVNNVEVHTAQTQTHREDYNSTLRVVSALPIQHQDWMSGKEFKCKVNNRALPSPIEKTISKPRGPVRAPQVYVLPPPAEEMTKKEFSLTCMITGFLPAEIAVDWTSNGRTEQNYKNTATVLDSDGSYFMYSKLRVQKSTWERGSLFACSVVHEGLHNHLTTKTISRSLGK
Take B1: the EC50 in assay [1] turned out to be 0.0515 nM.

B2: scFv-E040-msFcγ2c (Fc fusion)
chain: B1 chain with T40S, K44E, G48A, N59K, V144L
For B2, in assay [1], the EC50 came out at 0.0464 nM.

B3: scFv-F052-msFcγ2c (Fc fusion)
chain: DADPAQAAERVMTQSPDALAVSLGERATINCKSSQSLLYSSNNKNYLAWYQKKPGQPPKLLIYWASTRESGVPDRFSGSGSGTEFTLTINSVQAEDVAVYYCQQYFMTPITFGQGTKLEIKGGSSRSSSSGGGGSGGGGQVQLQESGGALVQPGRSLRLSCRTSGLNFGDYPINWVRQAPGKGLEWVGFIKSKSYGVTTEFAASVEGRFTISRDDSRGIAYLQMNSLKTEDTAVYYCTSSSGFLYYFDYWGQGTLVTVSSASTKGPSVTSGQAGRKLEPRVPITQNPCPPLKECPPCAAPDLLGGPSVFIFPPKIKDVLMISLSPMVTCVVVDVSEDDPDVQISWFVNNVEVHTAQTQTHREDYNSTLRVVSALPIQHQDWMSGKEFKCKVNNRALPSPIEKTISKPRGPVRAPQVYVLPPPAEEMTKKEFSLTCMITGFLPAEIAVDWTSNGRTEQNYKNTATVLDSDGSYFMYSKLRVQKSTWERGSLFACSVVHEGLHNHLTTKTISRSLGK
As to B3, the EC50 in assay [1] was found to be 0.0459 nM. As to SLLTEVETPTRNEWECRCSDSSD (modifications not checked) [M2e-VN], the EC50 in the assay with scFv-D005-msFcγ2c was found to be 32.5 µM; with scFv-E040-msFcγ2c, 43.2 µM; with scFv-F052-msFcγ2c, 50.8 µM.
